Here are results for 30 sequences from the nanobody polyreactivity screen of Harvey et al. (2022).

The data set is described as follows: yeast display, Sf9 membrane polyspecificity reagent, FACS + sequencing; frameworks hold sequencing errors. Put shortly:
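Nanobodies from a synthetic yeast display library (Saccharomyces cerevisiae BJ5465), induced 36–48 hours with galactose, were stained 1 hour at 4 °C with 10% biotinylated, detergent-solubilized Sf9 membrane reagent, enriched on streptavidin microbeads, then FACS-sorted. Anti-HA (expression) and streptavidin (reagent binding) fluorescence set low and high (top ~1%) gates. Polyreactivity labels come from the gate of origin. Genes were colony-PCR amplified, MiSeq 2 × 250 sequenced and filtered by CDR length.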
Consider “QVQLVESGGGLVQAGGSLRLSCAASGITFGYYAMGRYRQAPGKERELVAAISNSGRTYYADSVKGRFTISRDNAKNTVYLQMNSLKPEDTAVYYCAVRISGNWYDYWGQGTQVTVSS”, for which the “polyreactivity (PSR sort gate)” value is given as “low polyreactivity”.
Consider “QVQLVESGGGLVQAGGSLRLSCAASGITFGYYAMGWSRQAPGKERELVAAISSGGRTNYADSVKGRFTISRDNAKNTVYLQMISLKPEDTAVYYCAASTHHPGYPPDVLYDEYEYWGQGTQVTVSS”, for which the “polyreactivity (PSR sort gate)” value was “low polyreactivity”.
In the case of “QVQLVESGGGLVQAGGSLRLSCAASGITFGYYAMGWYRQAPGKERELVAAISNSGRTYYADSVKGRFTISRDNAKNTVYLQMNILKPEDTAVYYCAAEDAYYDFYYWGQGTKVTVSS”, the “polyreactivity (PSR sort gate)” value is on record as “low polyreactivity”.
In the case of “QVQLVESGGGLVQAGGSLRLSCAASGITFHRNAMGWYRQAPGKERELVAAITRGGSTYYADSVKGRFTISRDNAKNTVYLQMNSLKPEDTAVYYCNAYYWFGPGRDYWGQGTQVTVSS”, the “polyreactivity (PSR sort gate)” value is given as “high polyreactivity”.
In the case of “QVQLVESGGGLVQAGGSLRLSCAASGITFHSYAMGWYRQAPGKERELVAGISSGGSTNYADSVKGRFTISRDNAKNTVYLQMNSLKPEDTAVYYCNADTPFYEYDYWGQGTQVTVSS”, the “polyreactivity (PSR sort gate)” value is recorded as “low polyreactivity”.
As for “QVQLVESGGGLVQAGGSLRLSCAASGITFIGYVMGWYRQAPGKERELVAAISRSGASTYYADSVKGRFTISRDNAKNTVYLQMNSLKPEDTAVYYSATVRYHPAYYYWGQGTQVTVSS”, the entry is “high polyreactivity”; as for “QVQLVESGGGLVQAGGSLRLSCAASGITFIRNGMGWYRQAPGKERELVAAISDTGARTYYADSVKGRFTISRDNAKNTVYLQMNSLKPEDTAVYYCAAEVRTRYLYSFRWYDYWGQGTQVTVSS”, “low polyreactivity”; as for “QVQLVESGGGLVQAGGSLRLSCAASGITFKPNTMGWYRQAPGKERELVAAIDWSGSSTYYADSVKGRFTISRDNAKNTVYLHMNSLKPEDTAVYYCAADEYEYFWSYDYWGQGTQVTVSS”, “low polyreactivity”.
Regarding “QVQLVESGGGLVQAGGSLRLSCAASGITFKPNTMGWYRQAPGKERELVAAIDWSGSSTYYADSVKGRFTISRDNAKNTVYLQMISLKPEDTAVYYCAADDYEYFWSYDYWGQGTQVTVSS”, the “polyreactivity (PSR sort gate)” value is “low polyreactivity”.
For “QVQLVESGGGLVQAGGSLRLSCAASGITFKRYAMGWYRQAPGKERELVAAITWRGARTYYADSVKGRFTISRDNAKNTVYLQMNSLKPEDTAVYYCAADGYSGSGPYDYWGQGTQVTVSS”, the “polyreactivity (PSR sort gate)” value is given as “high polyreactivity”.
On to “QVQLVESGGGLVQAGGSLRLSCAASGITFKRYAMGWYRQAPGKEREMVAAITGIGGSTYYADSVKGRFTISRDNAMNTVYLQMNSLKPEDTAVYYCAARNNKKYDYWGQGTQVTVSS”, for which the “polyreactivity (PSR sort gate)” value is on record as “high polyreactivity”.
For “QVQLVESGGGLVQAGGSLRLSCAASGITFKTNARGWYRQAPGKERELVAAINKRGGSTYYADSVKGRFTISRDNAKNTVYLQMNSLKPEDTAVYYCARRYGEKFGGQGTQVTVSS”, the “polyreactivity (PSR sort gate)” value is on record as “high polyreactivity”.
As for “QVQLVESGGGLVQAGGSLRLSCAASGITFLDNAMGWYRQAPGKERELVAAITSDGNTYYADSVKGRFTISRDNAKNTVYLQMNSLKPEDTAVYYCAARGFLKYVTEFDYWGQGTQVTVSS”, the entry is “low polyreactivity”; as for “QVQLVESGGGLVQAGGSLRLSCAASGITFLEYAMGWYRQAPGKERELVATINSGGSTNYADSVKGRFTISRDNAKNTVYLQMNSLKPVDTAVYYCAADYGSDYTKGDYWGQGTQVTVSS”, “low polyreactivity”; as for “QVQLVESGGGLVQAGGSLRLSCAASGITFLFYVMGRYRQERGKERELVSTINSDDTTYYADSVKGRFTISRDNAKNTVYLQMNCLKPEDTAVYYCAADTWLWYGFDHWGQGTQVTVSS”, “high polyreactivity”.
In the case of “QVQLVESGGGLVQAGGSLRLSCAASGITFLKNAMGWYRQAPGKERELVAAISSSGGSTYYADSVKGRFTISRDNAKNTVYLQMNSLKPEDTAVYYCAAYPTSTVVDDFDYWGQGTQVTVSS”, the “polyreactivity (PSR sort gate)” value is reported as “high polyreactivity”.
Regarding “QVQLVESGGGLVQAGGSLRLSCAASGITFLKNAMGWYRQAPGKESELVAAISSSGGSTYYADSVKGRFTISRDNAKNTVYLQMNSLKPEDTAVYYCAARIYWYTPGRRGYTYDYWGQGTQVTVSS”, the “polyreactivity (PSR sort gate)” value is “high polyreactivity”.
As to “QVQLVESGGGLVQAGGSLRLSCAASGITFLNYAMGWYRQAPGKERELVAAIDTRGGRTNYADSVKGRFTISRDNAKNNVYLQMNSLKPEDTAVYYCAADPFYWYRSVRGEYWGQGSQVTVSS”, the “polyreactivity (PSR sort gate)” value is reported as “low polyreactivity”.
The entry for “QVQLVESGGGLVQAGGSLRLSCAASGITFLNYAMGWYRQAPGKERELVAAIDTRGGRTNYADSVKGRFTISRDNAKNTVYLQMNSLKPEDTAVYYCNALGYYVHKMDYWGQGTQVTVSS” is “low polyreactivity”; for “QVQLVESGGGLVQAGGSLRLSCAASGITFLNYAMGWYRQATGKERELVAANDTRGGRTNYADSVKGRFTISRDNAKNTVYLQMNSVKPEDTEVYYCYALGYYVHKMDYWGQGTQVTVSS” it is “low polyreactivity”.
As to “QVQLVESGGGLVQAGGSLRLSCAASGITFLPYAMGWYRQAPGKERELVAAITRGGGSTYADSVKGRFTISRDNAKYTVYLQMKSLKPEDTAVYYCAKRLGRVSWYEDYDYWGQGTEVTVSS”, the “polyreactivity (PSR sort gate)” value is recorded as “low polyreactivity”.
On to “QVQLVESGGGLVQAGGSLRLSCAASGITFLPYARGWYRQAPGKERELVAAITRGGGSTYADSVKGRFTISRDNAKNTVYLQMNSLKPEDTAVYYCAKRYGRVSWYEDYDYWGQGTQVTVSS”, for which the “polyreactivity (PSR sort gate)” value is reported as “low polyreactivity”.
For the sequence “QVQLVESGGGLVQAGGSLRLSCAASGITFLRNTMGWYRQAPGKERELVAAISRCGSTYYADSVKGRFTISRDNAKNTVYLQMNSLKPEDTAVYYCNAPSYVQATDYDYWGQGTQVTVSS”, the “polyreactivity (PSR sort gate)” value is “high polyreactivity”.
Consider “QVQLVESGGGLVQAGGSLRLSCAASGITFLRYAMGWYRKSPGKERELVARISSGGRTDYADSVKGRFTISRDNAKNTVYLQMNSLKPEDSAVYYCNATVYEWHTEYDYWGQGTQVTVSS”, for which the “polyreactivity (PSR sort gate)” value is recorded as “high polyreactivity”.
“QVQLVESGGGLVQAGGSLRLSCAASGITFLSNAMGWYRQAPGKERELDAAISRGGGTTYYADSVKGRFTISRDIAKNTVYLLMNCLKPEDTAGSYCGTESTHTRRYWYEYWGLGTQVTVSS”: the “polyreactivity (PSR sort gate)” value was “high polyreactivity”.
Consider “QVQLVESGGGLVQAGGSLRLSCAASGITFLVYAMGWYRQAPGKERELVAAISADAGGTYYADSVKGRFTISRDNAKNTVYLQMNSLKPEDTAVYYCNVDGRSDGDDYWGQGTQVTVSS”, for which the “polyreactivity (PSR sort gate)” value is “low polyreactivity”.
As to “QVQLVESGGGLVQAGGSLRLSCAASGITFLYYAMGWYRQAPGTERELVAAITSSGGRTYYADSVKGRFTISRDNAKNTVCLQMNSLKPEDTAVYYCAADSRTYNGGYYWGQGTQVTVSS”, the “polyreactivity (PSR sort gate)” value was “high polyreactivity”.
With “QVQLVESGGGLVQAGGSLRLSCAASGITFNFYAMGWYRQAPGKERELVAAITQSGGSTYYADSVKGRFTISRDNAKNTVYLQMNSLKPEDTAVYYCAAARTGHMYYWGQGTQVTVSS”, the “polyreactivity (PSR sort gate)” value was “high polyreactivity”.
Take “QVQLVESGGGLVQAGGSLRLSCAASGITFNGYVMGWYRQAPGKERELVAAITSGARTYYADSVKGRFTISRDNAKNTVYLQMNSLKPEDTAVYYCAASIWLYRYYYWGQVTQVTVSS”: the “polyreactivity (PSR sort gate)” value was “high polyreactivity”.
Take “QVQLVESGGGLVQAGGSLRLSCAASGITFNLYAMGWYRQAPGKEREFVAVITASGSSTYYADSVKGRFTISRDNAKNTVYLQMNSLKPEDTAVYYCAARWHIYYFSYVTSYAYGYWGQGTQVTVSS”: the “polyreactivity (PSR sort gate)” value was “high polyreactivity”.
